Reference: patent publication US20020132976A1, “Immunogenic peptides derived from prostate-specific antigen (PSA) and uses thereof” (priority 2000, published 2002)

Assays:
[1] = target: membrane-bound HLA-A0201 molecule on T2 cells (human); assay: T2 cell HLA-A0201 stabilisation, 125.0 µM peptide, BB7.2 staining, flow cytometry; analysis did not include the 3 hr de-stabilization step; settings: remark: other sources report otherwise
[2] = target: membrane-bound HLA-A0201 molecule on T2 cells (human); assay: T2 cell HLA-A0201 stabilisation, 125.0 µM peptide, BB7.2 staining, flow cytometry; settings: remark: other sources report otherwise

Fluorescence Index (FI) [1] | Fluorescence Index (FI) [2] | Binder
0.2 |  | PLYDMSLLK [CLP-320]
 | 2.7 | KLQCVDLHV [CLP-316]
